These results are taken from US20230406922A1 (SIMCERE ZAIMING PHARMACEUTICAL, published 2023).

Substitutions are numbered along the chain they refer to.

To fix the notation:
B1: FMC63.26-mIgG1 (antibody, V domains shown)
VH: EVTLKESGPVLVKPTETLTLTCTVSGFSLPDYGVSWIRQPPGKALEWLAVIWGSETTYYNSALKSRLTISKDTSKSQVVLTMTNMDPVDTATYYCAKHYYYGGSYAMDYWGQGTTVTVSS
VL: DIQMTQSPSSLSASVGDRVTITCRASQDISKYLNWYQQKPGGAVKLLIYHTSRLHSGVPSRFSGSGSGTDYTLTISSLQPEDFATYYCQQGNTLPYTFGGGTKVEIKR
notes: Humanized FMC63; also called FMC63-L2H6
B2: FMC63.27-mIgG1 (antibody, V domains shown)
VH: B1 VH with F27V, T73N
VL: B1 VL
notes: Humanized FMC63; also called FMC63-L2H7
B3: FMC63.25-mIgG1 (antibody, V domains shown)
VH: B1 VH with P30S
VL: B1 VL
notes: Humanized FMC63; also called FMC63-L2H5

The first test has as its target T1, murine CD19 protein (murine, UniProt P25918 19-287, limits assumed).
T1 construct: also called mouse CD19-his protein
T1 sequence (looked up): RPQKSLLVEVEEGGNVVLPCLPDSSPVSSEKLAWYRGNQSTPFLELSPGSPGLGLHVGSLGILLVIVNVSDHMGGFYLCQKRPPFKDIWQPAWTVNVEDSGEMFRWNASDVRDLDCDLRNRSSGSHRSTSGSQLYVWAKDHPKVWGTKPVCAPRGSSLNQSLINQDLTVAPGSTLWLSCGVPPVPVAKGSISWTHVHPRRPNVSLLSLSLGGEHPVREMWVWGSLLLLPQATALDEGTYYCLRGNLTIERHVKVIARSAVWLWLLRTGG
Nature of the test: ELISA, murine CD19 coated.
Regarding B1, the binding result was “no binding (tested: 100 nM)”.

As to B2, the binding result is “no binding (tested: 100 nM)”.

Consider B3, for which the binding result is reported as “no binding (tested: 100 nM)”.

Another test addresses T2, human CD19, full length, on cells (human, UniProt P15391 20-556).
T2 construct: the endogenous CD19 of Raji cells is put under the same molecule (the cell type stands under assay); The entry holds the signal peptide; also called CHO-K1-human CD19; CHO-K1-human CD19-2C8
T2 sequence: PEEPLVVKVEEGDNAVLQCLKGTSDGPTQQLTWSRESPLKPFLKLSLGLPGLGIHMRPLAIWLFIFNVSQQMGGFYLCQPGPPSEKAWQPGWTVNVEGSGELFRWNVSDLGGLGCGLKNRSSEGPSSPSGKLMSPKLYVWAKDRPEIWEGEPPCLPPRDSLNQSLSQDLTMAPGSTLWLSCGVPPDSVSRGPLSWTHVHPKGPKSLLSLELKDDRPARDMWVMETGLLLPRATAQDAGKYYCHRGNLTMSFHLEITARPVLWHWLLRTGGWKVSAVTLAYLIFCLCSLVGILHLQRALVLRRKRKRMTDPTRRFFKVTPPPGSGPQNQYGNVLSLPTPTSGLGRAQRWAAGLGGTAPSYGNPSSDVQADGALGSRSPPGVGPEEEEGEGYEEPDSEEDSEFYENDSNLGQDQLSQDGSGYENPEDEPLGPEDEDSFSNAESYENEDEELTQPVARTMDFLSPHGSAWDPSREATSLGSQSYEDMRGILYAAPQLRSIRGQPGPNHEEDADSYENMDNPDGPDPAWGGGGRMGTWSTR
Nature of the test: FACS on CHO-K1-human CD19 cells. From the text:
The desired cells were expanded to a logarithmic growth phase in a T-75 cell culture flask. For adherent cells CHO-K1, the culture medium was removed by pipetting, and the cells were washed twice with a PBS buffer, digested with trypsin, and washed twice with a PBS buffer again after the digestion was stopped. For suspension cells Raji, the medium supernatant was discarded by direct centrifugation, and the cell pellet was washed twice with PBS. After cell counting of the cells obtained in the last step, the cell pellet was resuspended to 2×10⁶ cells/mL with a blocking solution [PBS+2% (w/w) BSA] and added into a 96-well FACS reaction plate at 50 μL/well. […] After the plate was centrifuged and washed 5 times with a PBS buffer, the results were assayed and analyzed by FACS (FACS Canto™, purchased from BD Biosciences). Data analysis was performed by software (CellQuest) to obtain the mean fluorescence intensity (MFI) of the cells. Then, analysis was performed by software (GraphPad Prism8), data were fitted, and EC₅₀ values were calculated.
What is called EC50 is the concentration that produces a half-maximal response. For B1, a half-maximal effect (EC50) was put at 1.12 nM and the “maximum mean fluorescence intensity” value came out at 31500 MFI.

B2: a half-maximal response (EC50) required 1.33 nM and the “maximum mean fluorescence intensity” value turned out to be 29400 MFI.

Consider B3, for which the concentration for a half-maximal effect (EC50) came out at 0.79 nM and the “maximum mean fluorescence intensity” value was 33100 MFI.

Another test concerns the target T3, human CD19-his protein (human, UniProt P15391 20-291).
T3 construct: also called recombinant human CD19-His; human CD19 protein; not shown: His tag
T3 sequence (looked up): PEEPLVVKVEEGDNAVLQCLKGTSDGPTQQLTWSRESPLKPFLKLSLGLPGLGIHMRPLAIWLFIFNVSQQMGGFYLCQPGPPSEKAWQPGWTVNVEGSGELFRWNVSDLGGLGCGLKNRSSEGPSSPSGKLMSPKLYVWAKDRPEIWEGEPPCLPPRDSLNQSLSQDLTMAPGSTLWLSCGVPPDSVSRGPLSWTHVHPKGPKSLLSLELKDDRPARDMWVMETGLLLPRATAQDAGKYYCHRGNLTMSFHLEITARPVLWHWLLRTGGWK
Description: ELISA, human CD19-his coated at 4 ug/mL. On the procedure: A human CD19-his protein (purchased from ACROBiosystems, Cat. No. CD9-H52H2) was diluted with PBS to make a final concentration of 4 μg/mL, and then added into a 96-well ELISA plate at 100 μL/well. The plate was sealed with a plastic film and incubated at 4° C. overnight, wash twice with PBS the next day, and blocked at room temperature for 2 h by adding a blocking solution [PBS +2% (w/w) BSA]. […] After incubation for 2 h at 37° C., the plate was washed 3 times with PBS. […] After incubation for 1 h at 37° C., the plate was washed 5 times with PBS. A TMB substrate was added at 50 μL/well. After incubation at room temperature for 10 min, a stop solution (1.0 N HCl) was added at 50 μL/well. The OD450 nm values were read on an ELISA microplate reader (Multimode Plate Reader, EnSight, purchased from Perkin Elmer). […] The negative control antibody mIgG1 was an antibody against hen egg lysozyme, anti-hel-mIgG1 (purchased from Biointron, Cat. No. B118301), and the data in the table were OD450 nm values.
For B1, the “OD450 at 0.0001 nM” value came to 0.11 OD450, the “OD450 at 0.001 nM” value was 0.15 OD450, the “OD450 at 0.01 nM” value came to 0.38 OD450 and the “OD450 at 0.10 nM” value was determined as 1.54 OD450. Also, the “OD450 at 1.00 nM” value stood at 2.37 OD450, the “OD450 at 10.00 nM” value was found to be 2.38 OD450 and the “OD450 at 100.00 nM” value is 2.59 OD450.

Consider B2, for which the “OD450 at 0.0001 nM” value was 0.11 OD450, the “OD450 at 0.001 nM” value was 0.16 OD450, the “OD450 at 0.01 nM” value came out at 0.39 OD450 and the “OD450 at 0.10 nM” value is 1.52 OD450. Further, the “OD450 at 1.00 nM” value worked out at 2.29 OD450, the “OD450 at 10.00 nM” value was determined as 2.32 OD450 and the “OD450 at 100.00 nM” value was 2.64 OD450.

Regarding B3, the “OD450 at 0.0001 nM” value came out at 0.13 OD450, the “OD450 at 0.001 nM” value is 0.17 OD450, the “OD450 at 0.01 nM” value came to 0.51 OD450 and the “OD450 at 0.10 nM” value came out at 1.71 OD450. The “OD450 at 1.00 nM” value is 2.44 OD450, the “OD450 at 10.00 nM” value is 2.46 OD450 and the “OD450 at 100.00 nM” value came out at 2.75 OD450.

In another test the target is T1, murine CD19 protein. Description: ELISA, murine CD19 coated. The source holds these as a separate data set. On the technique in general: ELISA stands for enzyme-linked immunosorbent assay.
For B1, the “OD450 at 0.0001 nM” value was found to be 0.08 OD450, the “OD450 at 0.001 nM” value was 0.07 OD450, the “OD450 at 0.01 nM” value is 0.06 OD450 and the “OD450 at 0.10 nM” value came to 0.07 OD450. In addition, the “OD450 at 1.00 nM” value was 0.08 OD450, the “OD450 at 10.00 nM” value came to 0.09 OD450 and the “OD450 at 100.00 nM” value amounted to 0.13 OD450.

For the molecule B2, the “OD450 at 0.0001 nM” value came out at 0.06 OD450, the “OD450 at 0.001 nM” value is 0.06 OD450, the “OD450 at 0.01 nM” value amounted to 0.06 OD450 and the “OD450 at 0.10 nM” value is 0.05 OD450. The “OD450 at 1.00 nM” value stood at 0.06 OD450, the “OD450 at 10.00 nM” value came to 0.08 OD450 and the “OD450 at 100.00 nM” value was found to be 0.11 OD450.

Turning to B3, the “OD450 at 0.0001 nM” value is 0.08 OD450, the “OD450 at 0.001 nM” value worked out at 0.08 OD450, the “OD450 at 0.01 nM” value was 0.08 OD450 and the “OD450 at 0.10 nM” value came to 0.08 OD450. Also, the “OD450 at 1.00 nM” value was determined as 0.08 OD450, the “OD450 at 10.00 nM” value came out at 0.08 OD450 and the “OD450 at 100.00 nM” value came out at 0.09 OD450.
